Reference: publication PMC4176161

Assays:
[1] = biological target: T1, …3 (SEP3) (Arabidopsis thaliana), O22456; experiment: native gel or EMSA; settings: remark: other sources report otherwise
T1 chain: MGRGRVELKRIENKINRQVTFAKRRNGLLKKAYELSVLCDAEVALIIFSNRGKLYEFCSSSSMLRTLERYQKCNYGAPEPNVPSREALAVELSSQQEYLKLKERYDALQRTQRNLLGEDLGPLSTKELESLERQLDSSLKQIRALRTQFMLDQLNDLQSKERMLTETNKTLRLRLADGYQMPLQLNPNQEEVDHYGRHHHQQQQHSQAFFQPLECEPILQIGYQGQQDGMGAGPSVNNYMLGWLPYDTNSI

[2] = biological target: T1, …3 (SEP3) (Arabidopsis thaliana), O22456; experiment: native gel or EMSA; settings: remark: other sources report otherwise

B1: …3 (SEP3), O22456 1-251 (natural protein)
chain: T1 chain
B1 was tested, and the stoichiometry N [1] was 2 and the stoichiometry N [2] was 4.
